Assay results: paper PMC7344962 (Antibodies, 2020)
“And” between values parts separate entries of the source, which are not always exact repeats. Equal values may be shown once.

B1: scFv S1A0 (scFv, V domains shown)
VH: QVQLQQSGAELVRPGVSVKISCKGSGYTFTDYGMHWVKQSHAKSLEWIGIISTYSGDASYNQKFKGKATMTVDKSSSTAYMELARLTSEDSAIYYCARSSTWYYFDYWGQGTTLTVSS
VL: DIQVTQTTSSLSASLGDRVTISCRASQDISNYLNWYQQKPDGTVKLLIYYTSRLHSGVPSRFSGSGSGTDYSLTISNLEQEDIATYFCQQGNTLPYTFGGGTKLEIK
notes: VH A: wild-type heavy variable domain of the murine monoclonal IgG2a antibody 4F11E12 (anti-SAG1); the antibody is also in PDB 1YNT; (Gly4Ser)3 peptide linker; VL 0: wild-type light variable domain of the murine monoclonal IgG2a antibody 4F11E12 (anti-SAG1); VH-linker-VL orientation; also called wild-type scFv; WT scFv; source: E. coli HB2151 periplasm, purified (HisTrap HP); not shown: …
B2: scFv S1A4 (scFv, V domains shown)
VH: QVQLQQSGAELVRPGVSVKISCKGSGYTFTDYGMHWVKQSHAKSLEWIGIISTYSGDASYNQKFKGKATMTVDKSSSTAYMELARLTSEDSAIYYCARSSTWYYFDYWGQGTTLTVSS
VL: DIQMTQTPSSLSASLGDRVTISCRASQDISNYLNWYQQKPDGTVKLLIYYTSRLHSGVPSRFSGSGSGTDYSLTISNLEPEDIATYYCQQGNTLPYTFGGGTKLEIK
notes: VH A: as the VH of m1 (wild-type VH of 4F11E12); (Gly4Ser)3 peptide linker; VL 4: as VL 0 of m1 with the stated changes; numbers count on: IMGT numbering; VH-linker-VL orientation; source: E. coli HB2151 periplasm; periplasmic extract loaded on HiScreen Capto L, purified; not shown: Gly3AlaSerHis6, C-terminal, kept
B3: scFv S1D4 (scFv, V domains shown)
VH: QVQLQQSGAELVRPGTSVKISCKASGYTFTDYGMHWVKQRPGHGLEWIGIISTYSGDASYNQKFKGKATMTVDKSSSTAYMQLSSLTSEDSAVYYCARSSTWYYFDYWGQGTLVTVSA
VL: DIQMTQTPSSLSASLGDRVTISCRASQDISNYLNWYQQKPDGTVKLLIYYTSRLHSGVPSRFSGSGSGTDYSLTISNLEPEDIATYYCQQGNTLPYTFGGGTKLEIK
notes: VH D: as VH A of m1 with the cluster II and cluster III substitutions (VH Z without cluster I); numbers count on: IMGT numbering; (Gly4Ser)3 peptide linker; VL 4: as VL 0 of m1 with the stated changes; VH-linker-VL orientation; source: E. coli HB2151 periplasm; periplasmic extract loaded on HiScreen Capto L, purified; not shown: Gly3AlaSerHis6, C-terminal, kept
B4: scFv S1B4 (scFv, V domains shown)
VH: QVQLQQSGAELVRPGTSVKISCKASGYTFTDYGMHWVKQSHAKSLEWIGIISTYSGDASYNQKFKGKATMTVDKSSSTAYMQLSSLTSEDSAVYYCARSSTWYYFDYWGQGTLVTVSA
VL: DIQMTQTPSSLSASLGDRVTISCRASQDISNYLNWYQQKPDGTVKLLIYYTSRLHSGVPSRFSGSGSGTDYSLTISNLEPEDIATYYCQQGNTLPYTFGGGTKLEIK
notes: VH B: as VH A of m1 with only the cluster III substitutions; (Gly4Ser)3 peptide linker; VL 4: as VL 0 of m1 with the stated changes; numbers count on: IMGT numbering; VH-linker-VL orientation; source: E. coli HB2151 periplasm; periplasmic extract loaded on HiScreen Capto L, purified; not shown: Gly3AlaSerHis6, C-terminal, kept
B5: scFv S1C4 (scFv, V domains shown)
VH: QVQLQQSGAELVRPGVSVKISCKGSGYTFTDYGMHWVKQRPGHGLEWIGIISTYSGDASYNQKFKGKATMTVDKSSSTAYMELARLTSEDSAIYYCARSSTWYYFDYWGQGTTLTVSS
VL: DIQMTQTPSSLSASLGDRVTISCRASQDISNYLNWYQQKPDGTVKLLIYYTSRLHSGVPSRFSGSGSGTDYSLTISNLEPEDIATYYCQQGNTLPYTFGGGTKLEIK
notes: VH C: as VH A of m1 with only the cluster II substitutions (C-C' loop); numbers count on: IMGT numbering; (Gly4Ser)3 peptide linker; VL 4: as VL 0 of m1 with the stated changes; VH-linker-VL orientation; source: E. coli HB2151 periplasm; periplasmic extract loaded on HiScreen Capto L, purified; not shown: Gly3AlaSerHis6, C-terminal, kept

Each binder was assayed against T1, major surface antigen 1 (SAG1) of Toxoplasma gondii (Toxoplasma gondii, strain , UniProt P13664) (assay: SPR; SAG1 covalently immobilised (1000 RU, EDC/NHS) on a CM5S chip; T200, 25 °C, HBS-EP+; single cycle kinetics with scFv at 600-200-66-22-7.5 nM, 50 µL/min; Langmuir 1:1 then two-state fitting model, similar Kd values in both). Conditions: both partners purified.
T1 construct: major surface antigen 1 (SAG1) of Toxoplasma gondii; SAG1 in complex with the parent antibody is in PDB 1YNT (cited); also called antigen SAG1
T1 sequence (P13664 48-336): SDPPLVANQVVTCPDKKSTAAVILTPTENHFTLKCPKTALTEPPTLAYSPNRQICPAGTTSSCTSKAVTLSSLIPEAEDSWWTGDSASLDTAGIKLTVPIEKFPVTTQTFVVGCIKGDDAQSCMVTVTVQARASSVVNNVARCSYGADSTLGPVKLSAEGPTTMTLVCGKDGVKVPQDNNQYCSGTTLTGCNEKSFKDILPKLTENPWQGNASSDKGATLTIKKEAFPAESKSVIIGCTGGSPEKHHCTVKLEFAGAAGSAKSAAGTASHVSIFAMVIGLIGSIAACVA

Which Kd does the source give for B1 here?
The Kd was roughly 200 nM.

How did the Kd turn out when B2 was run?
Its Kd is roughly 200 nM.

Which Kd does the source give for B3 here?
Its Kd is roughly 200 nM.

Which Kd does the source give for B4 here?
Its Kd is roughly 200 nM.

With B5 as the binder, how does the Kd read?
Its Kd is ~200 nM and < 100 nM.
